The text below walks through data of the supplement of paper PMC10724198.

The data set concerns Saccharomyces cerevisiae. Briefly: protein stability index of tFT-peptide fusion (C-terminal peptide) (PSI (0-1 scale)); higher = more stable (slower turnover). To be noted: temperature: 30 C. As for the experimental part: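 MPS profiling in S. cerevisiae of the yeast C-terminome library: the last 12 aa of each annotated ORF are fused to the C-terminus of a sfGFP-mCherry timer, after a GGGS linker. Cells are FACS-sorted into 8 mCherry/sfGFP bins and deep-sequenced. PSI runs from 0 (unstable) to 1 (stable); wild type and das1Δ backgrounds, two technical replicates each.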

Setting [1] is: genetic background: das1 deletion.

± gives the standard deviation of the averaged measurements.

In turn, PVGAGNEPINPE [URN1 C-terminal 12 aa] came in with a protein stability index under setting [1] of 0.684 ± 0.013 and a protein stability index (genetic background: wild type) of 0.704 ± 0.074.
The like results for “PVTAIALLEARR [YER190C-A C-terminal 12 aa]” were, in that order, 0.6783 ± 0.005 and 0.65 ± 0.01.
The like results for PYNFIQLLHQGL [HOF1 C-terminal 12 aa] were, in that order, 0.725 ± 0.011 and 0.709 ± 0.012.
The like results for QAYIYIYIHIVN [EST2 C-terminal 12 aa] were, in that order, 0.195 ± 0.0094 and 0.0717 ± 0.017.
As to QEEEEDVATDSE [YRO2 C-terminal 12 aa], the protein stability index under setting [1] is 0.677 ± 0.014 and the protein stability index (genetic background: wild type) was 0.711 ± 0.034.
The like results for QEIQKKPSQQVS [BIG1 C-terminal 12 aa] were, in that order, 0.698 ± 0.0083 and 0.683 ± 0.066.
The like results for QFFLAPKFNDEE [POL30 C-terminal 12 aa] were, in that order, 0.712 ± 0.032 and 0.705 ± 0.023.
On to QFQTLNNLYFAQ [IME4 C-terminal 12 aa], for which the protein stability index under setting [1] was 0.715 ± 0.02 and the protein stability index (genetic background: wild type) worked out at 0.673 ± 0.044.
The like results for QGHGPVSPSPTK [PTM1 C-terminal 12 aa] were, in that order, 0.701 ± 0.022 and 0.723 ± 0.086.
In the case of QGPRPGNWDQED [CCT8 C-terminal 12 aa], the protein stability index was determined as 0.7177 ± 0.0017 under setting [1] and 0.678 ± 0.016 (genetic background: wild type).
On the same counts, the results for QGYKPNQSDRYY [PIN2 C-terminal 12 aa] are 0.68 ± 0.013 and 0.711 ± 0.044.
For the sequence QHYDEYYHELTN [PHO8 C-terminal 12 aa], the protein stability index was found to be 0.6964 ± 0.0064 under setting [1] and 0.68262 ± 0.00046 (genetic background: wild type).
On the same counts, the results for QIEWVDINRVTY [RAD50 C-terminal 12 aa] are 0.732 ± 0.014 and 0.735 ± 0.052.
The like results for QIFSLPAVTYNK [REC102 C-terminal 12 aa] were, in that order, 0.693 ± 0.018 and 0.743 ± 0.055.
The like results for QIITISNANSHA [MBP1 C-terminal 12 aa] were, in that order, 0.705 ± 0.026 and 0.688 ± 0.038.
“QKENQYHPRRNQ [YML009W-B C-terminal 12 aa]”: the protein stability index under setting [1] stood at 0.7123 ± 0.0032 and the protein stability index (genetic background: wild type) was 0.691 ± 0.039.
The like results for QLEEELMDMLDD [FCP1 C-terminal 12 aa] were, in that order, 0.674 ± 0.01 and 0.6692 ± 0.0016.
The like results for QLESDPPPCDDY [RIM8 C-terminal 12 aa] were, in that order, 0.7171 ± 0.0053 and 0.689 ± 0.039.
QLKACQEAARQY [MIX17 C-terminal 12 aa]: the protein stability index by setting is: under setting [1], 0.675 ± 0.025; (genetic background: wild type) 0.66 ± 0.031.
On the same counts, the results for QLKKSKVSVELE [MAK11 C-terminal 12 aa] are 0.6803 ± 0.0023 and 0.687 ± 0.047.
Consider QNADEESSSEEE [GCD6 C-terminal 12 aa], for which the protein stability index was 0.694 ± 0.011 under setting [1] and 0.6858 ± 0.0019 (genetic background: wild type).
On the same counts, the results for QNEQLQMLSNSV [ATG31 C-terminal 12 aa] are 0.723 ± 0.028 and 0.673 ± 0.046.
On the same counts, the results for QNLDENVWRTPI [SSP1 C-terminal 12 aa] are 0.692 ± 0.011 and 0.672 ± 0.032.
The like results for QPYRSGTLGKRR [AIR2 C-terminal 12 aa] were, in that order, 0.674 ± 0.035 and 0.6998 ± 0.004.
With QREEALISLNDW [REV3 C-terminal 12 aa], the protein stability index is 0.726 ± 0.016 under setting [1] and 0.713 ± 0.025 (genetic background: wild type).
The like results for QRELKKVDGTPI [RCI50 C-terminal 12 aa] were, in that order, 0.6851 ± 0.0065 and 0.741 ± 0.0098.
On the same counts, the results for QRIKQNNFLSQL [MRPL37 C-terminal 12 aa] are 0.7 ± 0.016 and 0.731 ± 0.05.
On the same counts, the results for QSADAAGVVKKH [GCN20 C-terminal 12 aa] are 0.683 ± 0.011 and 0.726 ± 0.028.
For the sequence QSLLDSLAKLQK [NAB3 C-terminal 12 aa], the protein stability index by setting is: under setting [1], 0.667 ± 0.009; (genetic background: wild type) 0.678 ± 0.022.
The like results for QSRYDNSRANRR [RAT1 C-terminal 12 aa] were, in that order, 0.7257 ± 0.0043 and 0.731 ± 0.099.
QTNSKPAAVSTN [PLN1 C-terminal 12 aa] yielded a protein stability index under setting [1] of 0.6745 ± 0.003 and a protein stability index (genetic background: wild type) of 0.668 ± 0.02.
On the same counts, the results for QTSAKISIRLLY [SER3 C-terminal 12 aa] are 0.6607 ± 0.00096 and 0.582 ± 0.0062.
On the same counts, the results for QTSAKVSIRLLY [SER33 C-terminal 12 aa] are 0.659 ± 0.034 and 0.595 ± 0.0064.
For RAGRSTLKETPQ [CCT6 C-terminal 12 aa], the protein stability index is, setting by setting: under setting [1], 0.673 ± 0.018; (genetic background: wild type) 0.692 ± 0.071.
On the same counts, the results for RAMNEDETLRNL [ORC1 C-terminal 12 aa] are 0.6957 ± 0.0042 and 0.746 ± 0.012.
On the same counts, the results for RCGALSEKLVFL [FMT1 C-terminal 12 aa] are 0.694 ± 0.011 and 0.697 ± 0.013.
The like results for RDLPSVLAKYGF [RRG1 C-terminal 12 aa] were, in that order, 0.7236 ± 0.0048 and 0.703 ± 0.04.
Sequence RDNPILLEDEDP [ULP2 C-terminal 12 aa] gave a protein stability index under setting [1] of 0.708 ± 0.022 and a protein stability index (genetic background: wild type) of 0.6747 ± 0.00092.
On the same counts, the results for REDDDEPASLDF [PRI1 C-terminal 12 aa] are 0.697 ± 0.0043 and 0.6533 ± 0.0064.
The like results for REVLEQEGRRIE [NBL1 C-terminal 12 aa] were, in that order, 0.69 ± 0.0073 and 0.693 ± 0.054.
As for RILKDEIPIGED [BET3 C-terminal 12 aa], the protein stability index is, setting by setting: under setting [1], 0.702 ± 0.017; (genetic background: wild type) 0.659 ± 0.0079.
In turn, RIYDFFQSQNWM [ADA2 C-terminal 12 aa] registered a protein stability index under setting [1] of 0.7311 ± 0.0031 and a protein stability index (genetic background: wild type) of 0.7058 ± 0.0047.
On the same counts, the results for RKAAERDNMLTT [CTL1 C-terminal 12 aa] are 0.704 ± 0.015 and 0.706 ± 0.0072.
On the same counts, the results for RKDEHIVQNIIN [YGR164W C-terminal 12 aa] are 0.6993 ± 0.0033 and 0.681 ± 0.029.
The like results for RKFQPPPGFKRK [SMB1 C-terminal 12 aa] were, in that order, 0.724 ± 0.017 and 0.74 ± 0.047.
As for RLKTGKKKGGPK [RRP14 C-terminal 12 aa], the protein stability index by setting is: under setting [1], 0.6909 ± 0.0054; (genetic background: wild type) 0.766 ± 0.13.
The like results for RLPRSFLFLNKK [YOR343C C-terminal 12 aa] were, in that order, 0.723 ± 0.01 and 0.665 ± 0.028.
On the same counts, the results for RLVVEPLQGRKH [ISD11 C-terminal 12 aa] are 0.729 ± 0.011 and 0.72 ± 0.036.
The like results for RLYVSRLFISKL [ATP8 C-terminal 12 aa] were, in that order, 0.801 ± 0.042 and 0.671 ± 0.14.
For the sequence RMDEENYEEEFC [UBP11 C-terminal 12 aa], the protein stability index is 0.716 ± 0.02 under setting [1] and 0.707 ± 0.034 (genetic background: wild type).
